From US20250011468A1 (Novo Nordisk, published 2025)
Values belong to the binder of their own block, whether it stands above or below them.

How the values were obtained:
desGla-desEGF1-FX E305A = desGla-desEGF1-FX E305A (human, UniProt P00742 126-488); assay: SPR (Biacore T200), antibody captured by anti-hIgG Fc, FX variant injected; % of wild-type binding
desGla-desEGF1-FX R287A = desGla-desEGF1-FX R287A (human, UniProt P00742 126-488); assay: as above
desGla-desEGF1-FX L419A = desGla-desEGF1-FX L419A (human, UniProt P00742 126-488); assay: as above
Sequence of desGla-desEGF1-FX L419A (P00742 other isoform, or with tags, fused parts or gaps L419A L419A): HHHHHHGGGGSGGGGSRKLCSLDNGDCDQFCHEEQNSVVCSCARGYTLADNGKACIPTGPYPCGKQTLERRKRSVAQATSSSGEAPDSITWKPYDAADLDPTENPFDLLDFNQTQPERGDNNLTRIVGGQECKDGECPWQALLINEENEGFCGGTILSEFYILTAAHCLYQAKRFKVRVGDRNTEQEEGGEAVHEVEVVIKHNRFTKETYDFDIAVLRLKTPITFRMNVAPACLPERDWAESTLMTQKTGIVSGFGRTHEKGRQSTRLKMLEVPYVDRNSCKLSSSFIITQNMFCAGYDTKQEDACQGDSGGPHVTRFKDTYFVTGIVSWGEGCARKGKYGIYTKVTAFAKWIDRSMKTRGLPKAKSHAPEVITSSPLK

desGla-desEGF1-FX T116A = desGla-desEGF1-FX T116A (human, UniProt P00742 126-488); assay: as above
desGla-desEGF1-FX F229A = desGla-desEGF1-FX F229A (human, UniProt P00742 126-488); assay: as above
desGla-desEGF1-FX E228A = desGla-desEGF1-FX E228A (human, UniProt P00742 126-488); assay: as above
desGla-desEGF1-FX T428A = desGla-desEGF1-FX T428A (human, UniProt P00742 126-488); assay: as above
desGla-desEGF1-FX R113A = desGla-desEGF1-FX R113A (human, UniProt P00742 126-488); assay: as above
Sequence of desGla-desEGF1-FX R113A (P00742 other isoform, or with tags, fused parts or gaps R113A R113A): as the sequence (P00742 other isoform, or with tags, fused parts or gaps L419A L419A) above, with R44A, A350L counted along it

[1] = molecular target: T1, wild-type desGla-desEGF1-FX (human, UniProt P00742 126-488); assay: as above
T1 construct: Expressed in HEK293; also called WT; desGLA-desEGF1-hFX

desGla-desEGF1-FX S227A = desGla-desEGF1-FX S227A (human, UniProt P00742 126-488); assay: as above
Sequence of desGla-desEGF1-FX S227A (P00742 other isoform, or with tags, fused parts or gaps S227A S227A): as the sequence (P00742 other isoform, or with tags, fused parts or gaps L419A L419A) above, with S158A, A350L counted along it

desGla-desEGF1-FX E266A = desGla-desEGF1-FX E266A (human, UniProt P00742 126-488); assay: as above
Sequence of desGla-desEGF1-FX E266A (P00742 other isoform, or with tags, fused parts or gaps E266A E266A): as the sequence (P00742 other isoform, or with tags, fused parts or gaps L419A L419A) above, with E197A, A350L counted along it

desGla-desEGF1-FX T127A = desGla-desEGF1-FX T127A (human, UniProt P00742 126-488); assay: as above
Sequence of desGla-desEGF1-FX T127A (P00742 other isoform, or with tags, fused parts or gaps T127A T127A): as the sequence (P00742 other isoform, or with tags, fused parts or gaps L419A L419A) above, with T58A, A350L counted along it

desGla-desEGF1-FX E103A = desGla-desEGF1-FX E103A (human, UniProt P00742 126-488); assay: as above
desGla-desEGF1-FX K420A = desGla-desEGF1-FX K420A (human, UniProt P00742 126-488); assay: as above
Sequence of desGla-desEGF1-FX K420A (P00742 other isoform, or with tags, fused parts or gaps K420A K420A): as the sequence (P00742 other isoform, or with tags, fused parts or gaps L419A L419A) above, with A350L, K351A counted along it

desGla-desEGF1-FX A118S = desGla-desEGF1-FX A118S (human, UniProt P00742 126-488); assay: as above
desGla-desEGF1-FX H101A = desGla-desEGF1-FX H101A (human, UniProt P00742 126-488); assay: as above
Sequence of desGla-desEGF1-FX H101A (P00742 other isoform, or with tags, fused parts or gaps H101A H101A): as the sequence (P00742 other isoform, or with tags, fused parts or gaps L419A L419A) above, with H32A, A350L counted along it

desGla-desEGF1-FX Y230A = desGla-desEGF1-FX Y230A (human, UniProt P00742 126-488); assay: SPR (Biacore T200), antibody captured by anti-hIgG Fc, FX variant injected (10 µM); % of wild-type binding
Experimental: Identification of hot-spot epitope residues was done using a Biacore T200 instrument at 25° C. Anti-hIgG Fc antibody from the Human Antibody Capture Kit (GE Healthcare, Catalogue #BR100839) at 2 μg/ml was immobilized on a Series S Sensor Chip CM5 (GE Healthcare, Catalogue #BR100530) using standard amine coupling chemistry. The anti-FX antibody mAb4-6934 (monovalent variant of mAb1-6723) was injected at the flow rate of 5 μL/min for 30 sec and captured by the immobilized anti-hIgG Fc antibody. […] Binding data were analyzed using steady-state fitting according to the 1:1 model in the Biacore Evaluation Software 2.0 supplied by GE Healthcare. Binding data are reported as % binding of FX variants to the anti-FX antibody (monovalent mAb1-6723) relative to binding of the wild-type FX to the anti-FX antibody at 5 or 10 μM FX variants injected and are calculated according to the formula: […]

[2] = molecular target: FIX R403A with C-terminal His-tag (human, UniProt P00740 47-461); assay: SPR (Biacore T200), His-tagged FIX variant captured by anti-His antibody, one-armed antibody as analyte; % of wild-type binding
Experimental: (§1) SPR analyses were carried out on Biacore 4000 or Biacore T200 instruments (Biacore AB, Uppsala, Sweden). For the experiments on the T200 instrument the following conditions were applied: measurements were conducted at a temperature of 25° C. Anti-His antibody at 25 μg/ml (R&D Systems, catalogue #MAB050) was immobilized on a CM5 sensor chip using standard amine coupling chemistry. […] at 25 nM were injected at a flow rate of 10 μl/min for 1 min and were captured via their His-tag by the immobilized anti-His antibody. Subsequently, 200 nM (with 4-fold serial dilutions), 1600 nM (with 3-fold serial dilutions), and 2000 nM (with 3-fold serial dilution) of mAb4-0004, mAb3-3279 and mAb4-0673, respectively, were injected at a flow rate of 50 μl/min for 5 min to allow for binding to captured FIX variant followed by a 10 min buffer injection allowing for dissociation of the monovalent anti-FIX antibodies. The running buffer used was 20 mM Tris, 150 mM NaCl, 5 mM CaCl₂, 0.05% Tween-20, 1 mg/ml BSA, pH 7.4. This was also used for dilution of anti-FIX antibody and FIX samples. Regeneration of the chip was achieved using 10 mM Glycine pH 2.0. Binding data were analysed according to a 1:1 model using BiaEvaluation 4.1 supplied by the manufacturer (Biacore AB, Uppsala, Sweden). A similar experimental set-up was used for the Biacore 4000 instrument.
(§2) A more detailed binding analysis was conducted for residues defined as epitope residues (see example 6) using the Biacore T200 instrument.

[3] = molecular target: FIX N406A with C-terminal His-tag (human, UniProt P00740 47-461); assay: as above
Experimental: as §1, §2

[4] = molecular target: FIX K293A with C-terminal His-tag (human, UniProt P00740 47-461); assay: as above
Sequence of FIX K293A with C-terminal His-tag (P00740 other isoform, or with tags, fused parts or gaps K293A K293A limits assumed): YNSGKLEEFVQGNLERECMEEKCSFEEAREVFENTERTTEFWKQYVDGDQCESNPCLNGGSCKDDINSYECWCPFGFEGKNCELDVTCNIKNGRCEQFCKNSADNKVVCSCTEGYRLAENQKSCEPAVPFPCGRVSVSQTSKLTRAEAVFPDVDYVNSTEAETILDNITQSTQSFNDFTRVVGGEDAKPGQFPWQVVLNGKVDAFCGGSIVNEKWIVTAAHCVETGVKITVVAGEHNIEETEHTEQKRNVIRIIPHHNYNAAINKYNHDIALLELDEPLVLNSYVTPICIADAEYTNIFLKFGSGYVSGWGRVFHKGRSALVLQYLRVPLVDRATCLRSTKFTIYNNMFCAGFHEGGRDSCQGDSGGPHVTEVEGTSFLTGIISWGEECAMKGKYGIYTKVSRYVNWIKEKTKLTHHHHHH
Experimental: as §1, §2

[5] = molecular target: FIX N258A with C-terminal His-tag (human, UniProt P00740 47-461); assay: as above
Sequence of FIX N258A with C-terminal His-tag (P00740 other isoform, or with tags, fused parts or gaps N258A N258A limits assumed): as the sequence (P00740 other isoform, or with tags, fused parts or gaps K293A K293A limits assumed) above, with N258A, A293K counted along it
Experimental: as §1, §2

[6] = molecular target: FIX Y404F with C-terminal His-tag (human, UniProt P00740 47-461); assay: as above
Sequence of FIX Y404F with C-terminal His-tag (P00740 other isoform, or with tags, fused parts or gaps Y404F Y404F limits assumed): as the sequence (P00740 other isoform, or with tags, fused parts or gaps K293A K293A limits assumed) above, with A293K, Y404F counted along it
Experimental: as §1, §2

[7] = molecular target: FIX E410Q with C-terminal His-tag (human, UniProt P00740 47-461); assay: as above
Experimental: as §1, §2

[8] = molecular target: FIX H257A with C-terminal His-tag (human, UniProt P00740 47-461); assay: as above
Sequence of FIX H257A with C-terminal His-tag (P00740 other isoform, or with tags, fused parts or gaps H257A H257A limits assumed): as the sequence (P00740 other isoform, or with tags, fused parts or gaps K293A K293A limits assumed) above, with H257A, A293K counted along it
Experimental: as §1, §2

[9] = molecular target: FIX H256A with C-terminal His-tag (human, UniProt P00740 47-461); assay: as above
Experimental: as §1, §2

[10] = molecular target: FIX K411A with C-terminal His-tag (human, UniProt P00740 47-461); assay: as above
Experimental: as §1, §2

[11] = molecular target: T2, wild-type FIX with C-terminal His-tag (human, UniProt P00740 47-461); assay: SPR (Biacore T200), His-tagged FIX captured by anti-His antibody, one-armed antibody as analyte; % of wild-type binding
T2 construct: Secreted mature FIX from expi293F cells; also called WT
Experimental: as §1

Sequence of desGla-desEGF1-FX R287A (P00742 other isoform, or with tags, fused parts or gaps R287A R287A): as the sequence (P00742 other isoform, or with tags, fused parts or gaps L419A L419A) above, with R218A, A350L counted along it

Binding (%) relative to wild-type (desGla-desEGF1-FX E305A): 97%
Binding (%) relative to wild-type (desGla-desEGF1-FX R287A): 66%
Binding (%) relative to wild-type (desGla-desEGF1-FX L419A): 50%
Binding (%) relative to wild-type (desGla-desEGF1-FX T116A): 114%
Binding (%) relative to wild-type (desGla-desEGF1-FX F229A): 99%
Binding (%) relative to wild-type (desGla-desEGF1-FX E228A): 80%
Binding (%) relative to wild-type (desGla-desEGF1-FX T428A): 81%
Binding (%) relative to wild-type (desGla-desEGF1-FX R113A): 28%
Binding (%) relative to wild-type [1]: 100%
Binding (%) relative to wild-type (desGla-desEGF1-FX S227A): 66%
Binding (%) relative to wild-type (desGla-desEGF1-FX E266A): 112%
Binding (%) relative to wild-type (desGla-desEGF1-FX T127A): 113%
Binding (%) relative to wild-type (desGla-desEGF1-FX E103A): 71%
Binding (%) relative to wild-type (desGla-desEGF1-FX K420A): 23%
Binding (%) relative to wild-type (desGla-desEGF1-FX A118S): 102%
Binding (%) relative to wild-type (desGla-desEGF1-FX H101A): 51%
Binding (%) relative to wild-type (desGla-desEGF1-FX Y230A): 1%
B1: mAb4-6934 (monovalent one-armed variant of mAb1-6723) (antibody, V domains shown)
VH: EVQLVQSGAEVKKPGESLRISCKGSGYSFTTSWIVWVRQMPGKGLEWMGMIDPSDSFTSYSPSFQGHVTISADKSISTAYLQWSSLKASDTAMYYCARLHYYHSEEFDVWGQGTLVTVSS
VL: EIVLTQSPGTLSLSPGERATLSCRASQSVSSSYLAWYQQKPGQAPRLLIYGASSRARGIPDRFSGSGSGTDFTLTISRLEPEDFAVYYCQQFGSSRLFTFGQGTKLEIK
notes: also called monovalent mAb1-6723

Binding (%) relative to wild-type [2]: 94%
Binding (%) relative to wild-type [3]: 12%
Binding (%) relative to wild-type [4]: 23%
Binding (%) relative to wild-type [5]: 82%
Binding (%) relative to wild-type [6]: 76%
Binding (%) relative to wild-type [7]: 39%
Binding (%) relative to wild-type [8]: 8%
Binding (%) relative to wild-type [9]: 32%
Binding (%) relative to wild-type [10]: 71%
Binding (%) relative to wild-type [11]: 100%
B2: mAb3-3279 (monovalent one-armed variant of mAb1-1307) (antibody, V domains shown)
VH: EVQLVESGGGLVQPGRSLRLSCAASGFTFGDYAMHWVRQAPGKGLEWVSGISWNSGSIGYADSVKGRFTISRDNAKNSLYLQMNSLRAEDTALYYCAKGQYDEDAGMDVWGQGTTVTVSS
VL: DIQMTQSPSSLSASVGDRVTITCRASQSISSYLNWYQQKPGKAPKLLIYAASSLQSGVPSRFSGSGSGTDFTLTISSLQPEDFATYYCQQGYPTWTFGGGTKVEIK
